# Substitutions are numbered along the chain they refer to.
# T1: recombinant human CD86 (ACROBiosystems) (human, UniProt P42081 26-247, limits assumed)
# T1 construct: counted here as a B7 family member
# T1 sequence (looked up): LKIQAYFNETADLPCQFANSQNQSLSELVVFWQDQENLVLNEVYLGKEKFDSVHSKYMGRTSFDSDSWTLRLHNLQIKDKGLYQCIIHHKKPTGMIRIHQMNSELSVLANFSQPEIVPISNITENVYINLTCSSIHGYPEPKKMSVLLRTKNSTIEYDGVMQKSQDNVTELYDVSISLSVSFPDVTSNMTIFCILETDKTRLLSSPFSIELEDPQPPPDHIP
# T2: recombinant human B7-H2 (ACROBiosystems) (human, UniProt O75144 19-258, limits assumed)
# T2 construct: counted here as a B7 family member
# T2 sequence (looked up): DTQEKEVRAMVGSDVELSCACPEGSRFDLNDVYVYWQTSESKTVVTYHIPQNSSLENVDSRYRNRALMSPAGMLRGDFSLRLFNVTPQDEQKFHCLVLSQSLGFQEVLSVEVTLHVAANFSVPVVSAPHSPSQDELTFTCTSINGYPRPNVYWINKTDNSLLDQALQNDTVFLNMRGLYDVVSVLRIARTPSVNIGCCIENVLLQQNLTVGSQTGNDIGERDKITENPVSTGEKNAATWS
# B1: chimeric anti-human CD47 monoclonal antibody mAb-18-5 N297A (antibody, human IgG1, kappa, N297A)
# heavy: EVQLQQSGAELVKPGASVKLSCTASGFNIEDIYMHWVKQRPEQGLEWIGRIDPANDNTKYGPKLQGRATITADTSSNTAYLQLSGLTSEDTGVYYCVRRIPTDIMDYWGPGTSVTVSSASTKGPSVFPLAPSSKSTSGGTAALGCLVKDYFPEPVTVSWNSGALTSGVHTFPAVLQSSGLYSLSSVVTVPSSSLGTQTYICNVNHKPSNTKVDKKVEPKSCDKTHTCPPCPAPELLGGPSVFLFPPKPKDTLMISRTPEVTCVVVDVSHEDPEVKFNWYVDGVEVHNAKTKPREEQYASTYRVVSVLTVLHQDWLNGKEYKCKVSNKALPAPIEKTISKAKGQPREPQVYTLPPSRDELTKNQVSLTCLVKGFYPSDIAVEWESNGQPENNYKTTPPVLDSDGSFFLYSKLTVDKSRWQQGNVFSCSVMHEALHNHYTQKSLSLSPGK
# light: DIVMTQSQKFMSTSVGDRVSITCKASQNVRTSIAWYQQKSGQSPKTLIYLASNRHTGVPDRFTGSGSGTDFTLTISNVQSEDLADYFCLQHWNYPFTFGSGTKLEIKRTVAAPSVFIFPPSDEQLKSGTASVVCLLNNFYPREAKVQWKVDNALQSGNSQESVTEQDSKDSTYSLSSTLTLSKADYEKHKVYACEVTHQGLSSPVTKSFNRGEC
# notes: no further substitution applied
# B2: chimeric anti-human CD47 monoclonal antibody mAb-18-10 (antibody, human IgG1, kappa)
# heavy: not shown
# light: B1 light with S40P
# How the values were obtained:
# [1] = molecular target: T1, recombinant human CD86 (ACROBiosystems); test: ELISA, coated recombinant protein
# Protocol: (§1) Binding specificity of the chimeric anti-human CD47 mAbs was determined by ELISA. A 96-well high-adsorption ELISA plate was coated with 1 μg/mL of the recombinant human PD1, CD28, CTLA4, ICOS, BTLA, CD47, PD-L2, CD80, CD86, B7-H2, CD47, SIRPα and SIRPγ (all from ACROBiosystems), at 100 μL per well using carbonate buffer solution, pH=9.6 at 4° C. overnight. The plate was washed 5 times with PBST, and then blocked using PBST with 1% BSA, 300 μL/well, and incubated at 25° C. for 1 hour, and then washed 5 times with PBST. The chimeric anti-human CD47 mAb samples serially diluted in PBST with 1% BSA and the control CC-90002 and the isotype control were added, 100 μL/well, incubated at 25° C. for 1 hour, and then washed 5 times with PBST. The horseradish peroxidase-labeled anti-human IgG antibody (Chemicon, catalog number AP309P) diluted 1:10000 in PBST with 1% BSA was then added, 100 μL per well, and incubated at 25° C. for 1 hour. The plate was washed 5 times with PBST. The colorimetric substrate TMB was added, 100 μL/well, and developed at room temperature for 10 minutes. 1M H₂SO₄ was added, 100 μL/well, to stop the development. The absorbance at 450 nm was read on a microplate reader.
# [2] = molecular target: T2, recombinant human B7-H2 (ACROBiosystems); test: ELISA, coated recombinant protein
# Protocol: as §1
# [3] = molecular target: recombinant human SIRPγ (ACROBiosystems) (human, UniProt Q9P1W8 29-360, limits assumed); test: ELISA, coated recombinant protein
# Protocol: as §1
# [4] = molecular target: T3, recombinant human CD47-Fc protein (ACROBiosystems, catalog number CD7-H52A5) (human, UniProt Q08722 19-139); test: blocking ELISA: plate coated with human CD47-Fc, 2 nM biotin-labelled SIRPα as the blocked ligand, falling OD450 curve; the sheet labels the half-maximal value EC50
# T3 construct: bought; not shown: Fc part of a bought fusion protein, not described
# Protocol: A 96-well high-adsorption ELISA plate was coated with 1 μg/mL of the recombinant human CD47-Fc (ACROBiosystems) at 100 μL per well using carbonate buffer solution, pH=9.6 at 4° C. overnight. The plate was washed 5 times with PBST, and then blocked using PBST with 1% BSA, 300 μL/well, and incubated at 25° C. for 1 hour, and then washed 5 times with PBST. The anti-human CD47 antibody samples were added, 50 μL/well, the biotin-labelled SIRPα (ACROBiosystems) was added at a concentration of 4 nM (a final concentration of 2 nM), 50 μL/well, incubated at 25° C. for 90 minutes, and then washed 5 times with PBST. The Streptavidin-HRP (BD Pharmingen, catalog number 554066) diluted 1:1000 in PBST with 1% BSA was then added, 100 μL per well, and incubated at 25° C. for 1 hour. The plate was washed 5 times with PBST. The colorimetric substrate TMB was added, 100 μL/well, and developed at room temperature for 10 minutes. 1M H₂SO₄ was added, 100 μL/well, to stop the development. The absorbance at 450 nm was read on a microplate reader.
# recombinant human CD47 [5] = molecular target: T4, recombinant human CD47 (human, UniProt Q08722 19-139); test: ELISA, plate coated with 1 µg/mL recombinant human CD47, OD450
# T4 construct: also called antigen CD47
# Protocol: A 96-well high-adsorption ELISA plate was coated with 1 μg/mL of the recombinant human CD47 (Sino Biological Inc.) at 100 μL per well using carbonate buffer solution, pH=9.6 at 4° C. overnight. The plate was washed 5 times with PBST, and then blocked using PBST with 1% BSA, 300 μL/well, and incubated at 25° C. for 1 hour, and then washed 5 times with PBST. The anti-human CD47 antibody samples and the control CC-90002 (a patent sequence from WO2016109415) were added, 100 μL/well, incubated at 25° C. for 1 hour, and then washed 5 times with PBST. The horseradish peroxidase-labeled anti-mouse IgG antibody (Abcam, catalog number Ab7068) diluted 1:10000 in PBST with 1% BSA was then added, 100 μL per well, and incubated at 25° C. for 1 hour. The plate was washed 5 times with PBST. The colorimetric substrate TMB was added, 100 μL/well, and developed at room temperature for 10 minutes. 1M H₂SO₄ was added, 100 μL/well, to stop the development. The absorbance at 450 nm was read on a microplate reader.
# recombinant human CD47 [6] = molecular target: T4, recombinant human CD47; test: SPR, Biacore X100, antibody captured on Protein A chip, CD47 as analyte
# Excerpt: Biacore X100 instrument (purchased from GE) was used to detect the kinetic constant of the chimeric anti-human CD47 monoclonal antibodies binding to its antigen human CD47. This instrument utilizes optical surface plasmon resonance technology to detect the association and dissociation between the molecules coated on the biochip and the molecules to be tested. The main reagent used is Protein A chip (GE Healthcare, 29-1275-57). The experimental procedure is briefly described as follows: the chimeric anti-human CD47 antibodies were diluted in running buffer (1×HBS-EP+10 mM HEPES, 150 mM NaCl, 3 mM EDTA, 0.05% surfactant P20, pH7.4). During the capture-binding phase, the antibodies at a concentration of 2 μg/mL were injected for 60 seconds at a speed of 10 μL/min. During the binding phase, the antigen CD47 was diluted into multiple concentrations with running buffer, injected for 120 seconds at a speed of 30 μL/min respectively. During the dissociation phase, running buffer was injected for 600 seconds at a speed of 10 μL/min. The regeneration condition is 10 mM glycinate solution, pH1.5. Association kinetic constants and dissociation kinetic constants were analyzed and calculated by Biacore X100 evaluation software. The association kinetic constants, dissociation kinetic constants and dissociation equilibrium constants of the chimeric anti-human CD47 antibodies were shown in Table 7.
# T4 sequence (Q08722 19-139 limits assumed): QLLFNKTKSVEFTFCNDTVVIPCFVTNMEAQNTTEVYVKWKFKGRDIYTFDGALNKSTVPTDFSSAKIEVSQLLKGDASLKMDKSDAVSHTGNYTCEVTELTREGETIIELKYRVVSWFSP
# T3 sequence (Q08722 19-139 limits assumed): as above
# recombinant human SIRPγ (ACROBiosystems), sequence (Q9P1W8 29-360 limits assumed): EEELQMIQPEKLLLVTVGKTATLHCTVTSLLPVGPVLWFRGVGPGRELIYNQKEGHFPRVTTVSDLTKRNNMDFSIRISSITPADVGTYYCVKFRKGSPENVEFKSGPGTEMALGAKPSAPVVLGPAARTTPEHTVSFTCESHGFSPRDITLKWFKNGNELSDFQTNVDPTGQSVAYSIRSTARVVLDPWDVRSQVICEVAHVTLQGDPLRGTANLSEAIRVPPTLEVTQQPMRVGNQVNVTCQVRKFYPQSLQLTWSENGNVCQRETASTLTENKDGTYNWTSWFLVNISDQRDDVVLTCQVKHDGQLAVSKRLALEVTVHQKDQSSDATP
Binder,binding result [1],binding result [2],binding result [3],IC50 [4],EC50 (recombinant human CD47 [5]),Kd (recombinant human CD47 [6]),koff (recombinant human CD47 [6]),kon (recombinant human CD47 [6])
B1,no binding,no binding,no binding,1.75 nM,0.026 nM,,,
B2,no binding,no binding,no binding,1.64 nM,0.026 nM,1.02 nM,0.00101 s⁻¹,994000 M⁻¹ s⁻¹

# Reference: patent US20250277031A1 (BEIJING HANMI PHARMACEUTICAL, published 2025)
